Results as given in patent US20250215104A1.

Biological target: cell surface human uPAR (huPAR) (human) (UniProt Q03405)
Test: cell-based or functional assay

Sequence of cell surface human uPAR (huPAR) (human) (Q03405 23-305): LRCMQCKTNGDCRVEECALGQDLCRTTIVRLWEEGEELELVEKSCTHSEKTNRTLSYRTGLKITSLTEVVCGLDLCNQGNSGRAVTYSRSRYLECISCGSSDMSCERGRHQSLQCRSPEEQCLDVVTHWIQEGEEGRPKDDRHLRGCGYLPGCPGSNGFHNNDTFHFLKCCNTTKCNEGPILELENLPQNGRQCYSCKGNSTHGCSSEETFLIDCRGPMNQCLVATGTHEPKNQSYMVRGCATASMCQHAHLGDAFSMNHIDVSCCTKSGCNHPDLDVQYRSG

hIgG control antibody gave a cellular endocytosis: mean cellular fluorescent signal (FITC-conjugated antibody, 10 µg/mL, 1 hr, undifferentiated human podocytes) of 100 RFU.
